Source: the supplement of paper PMC7125110
± gives the standard error. For part of these data: This sample holds only a part of the variants without activity.

B1: glmS ribozyme (parent)
chain: AUAAAAGCGCCAGAACUACAGAAAUGUAGUUGACGAGGAGGAGGUUUAUCGAAUUUUCGGCGGAUGCCUCCAAA

Experiments:
Details in all cases: with glucosamine-6-phosphate
glucosamine-6-phosphate [1] = variants of: B1; experiment: kcat; higher = faster cleavage; RNA array
In short: (§1)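 Glucosamine-6-phosphate (40 μM to 10 mM) in HEPES/KCl/Mg(OAc)2 buffer was flowed over sequenced MiSeq chips, and tiles were imaged over ~14 h. Barcoded ribozyme variants there had been transcribed in situ by E. coli RNA polymerase and were tracked through a hybridised Cy3 probe at 37 °C. One- or two-exponential decay fits to per-tile medians, normalised to baseline and to non-cleaving reference variants, gave kobs. kcat and KM came from weighted Michaelis–Menten fits across concentrations.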

glucosamine-6-phosphate [2] = variants of: B1; experiment: KM; higher = weaker cofactor use; RNA array
In short: as §1

glucosamine-6-phosphate [3] = variants of: B1; experiment: self-cleavage kobs at 160 uM GlcN6P; higher = faster cleavage; RNA array
In short: as §1

glucosamine-6-phosphate [4] = variants of: B1; experiment: self-cleavage kobs at 640 uM GlcN6P; higher = faster cleavage; RNA array
In short: as §1

glucosamine-6-phosphate [5] = variants of: B1; experiment: self-cleavage kobs at 2500 uM GlcN6P; higher = faster cleavage; RNA array
In short: as §1

glucosamine-6-phosphate [6] = variants of: B1; experiment: self-cleavage kobs at 10000 uM GlcN6P; higher = faster cleavage; RNA array
In short: as §1

glucosamine-6-phosphate [7] = variants of: B1; experiment: self-cleavage kobs at 40 uM GlcN6P; higher = faster cleavage; RNA array
In short: as §1

Variant: AUAAAGGCGCCAGAACUACAGAAAUGUAGUUGACGAGGAGGAGGUUUAUCGAGUUUUCGGCGGAUGCCUCCAAA
- kcat (glucosamine-6-phosphate [1]): 0.000509 ± 6.7e-05 s⁻¹
- KM (glucosamine-6-phosphate [2]): 2390 ± 600 µM
- self-cleavage kobs at 160 uM GlcN6P (glucosamine-6-phosphate [3]): 3.62e-05 ± 1.3e-05 s⁻¹
- self-cleavage kobs at 640 uM GlcN6P (glucosamine-6-phosphate [4]): 9.71e-05 ± 1.5e-05 s⁻¹
- self-cleavage kobs at 2500 uM GlcN6P (glucosamine-6-phosphate [5]): 0.000306 ± 4.1e-05 s⁻¹
- self-cleavage kobs at 10000 uM GlcN6P (glucosamine-6-phosphate [6]): 0.000395 ± 4.4e-05 s⁻¹

Variant: AUAAAAGCGCCAGAACUACAGAAAUGUAGUUGACGAGGAGGAGGUUUAUCGAAUGUUCGGCGGGUGCCUCCAAA
- kcat (glucosamine-6-phosphate [1]): 0.0303 ± 0.0073 s⁻¹
- KM (glucosamine-6-phosphate [2]): 1980 ± 600 µM
- self-cleavage kobs at 40 uM GlcN6P (glucosamine-6-phosphate [7]): 0.000723 ± 0.00013 s⁻¹
- self-cleavage kobs at 160 uM GlcN6P (glucosamine-6-phosphate [3]): 0.00204 ± 0.00033 s⁻¹
- self-cleavage kobs at 640 uM GlcN6P (glucosamine-6-phosphate [4]): 0.0075 ± 0.00091 s⁻¹
- self-cleavage kobs at 2500 uM GlcN6P (glucosamine-6-phosphate [5]): 0.0149 ± 0.0036 s⁻¹
- self-cleavage kobs at 10000 uM GlcN6P (glucosamine-6-phosphate [6]): 0.0308 ± 0.0088 s⁻¹

Variant: AUAAAAGCGCCAGAACUACAGAAAUGUAGUUGACGACGAGGAGGUUUAUCGAAUUUUCGGCGGAUGCCGCCAAA
- kcat (glucosamine-6-phosphate [1]): 2.05e-05 ± 4e-06 s⁻¹

Variant: AUAAAAGCGCCAGAAUUACAGAAAUGUAAUUGACGAGGAGGAGGUUUAUCGAAUUUUCGGCGGAUACCUCCAAA
- kcat (glucosamine-6-phosphate [1]): 0.00966 ± 0.0019 s⁻¹
- KM (glucosamine-6-phosphate [2]): 597 ± 190 µM
- self-cleavage kobs at 40 uM GlcN6P (glucosamine-6-phosphate [7]): 0.000592 ± 0.00015 s⁻¹
- self-cleavage kobs at 640 uM GlcN6P (glucosamine-6-phosphate [4]): 0.00534 ± 0.001 s⁻¹
- self-cleavage kobs at 2500 uM GlcN6P (glucosamine-6-phosphate [5]): 0.00654 ± 0.0021 s⁻¹
- self-cleavage kobs at 10000 uM GlcN6P (glucosamine-6-phosphate [6]): 0.0139 ± 0.0063 s⁻¹

Variant: AUAAAAGCGCCAGAGCUACAGAAAUGUAGUUGACGAGGAGGAGGUUUAUCGAAUUUUCAGCGGAUGCCUCCAAA
- kcat (glucosamine-6-phosphate [1]): 0.000151 ± 1.1e-05 s⁻¹
- KM (glucosamine-6-phosphate [2]): 3440 ± 750 µM
- self-cleavage kobs at 2500 uM GlcN6P (glucosamine-6-phosphate [5]): 6.85e-05 ± 2.3e-05 s⁻¹
- self-cleavage kobs at 10000 uM GlcN6P (glucosamine-6-phosphate [6]): 0.000112 ± 1.5e-05 s⁻¹

Variant: AUAAAAGCGCCAGAACUACAGAAAUGUAGUUAACGAGGAGGAGGUUUAUCGAAUUUUCAGCGGAUGCCUCCAAA
- kcat (glucosamine-6-phosphate [1]): 1.74e-05 ± 3.1e-06 s⁻¹
- self-cleavage kobs at 160 uM GlcN6P (glucosamine-6-phosphate [3]): < 1e-05 s⁻¹

Variant: AUAAAAGCGCCAUAACUACAGAAAUGUAGUUGACGAGGAGUAGGUUUAUCGAAUUUUCGGCGGAUGCCUCCAAA
- kcat (glucosamine-6-phosphate [1]): 7.91e-05 ± 6.7e-06 s⁻¹
- KM (glucosamine-6-phosphate [2]): 4150 ± 890 µM
- self-cleavage kobs at 2500 uM GlcN6P (glucosamine-6-phosphate [5]): 3.07e-05 ± 8.6e-06 s⁻¹
- self-cleavage kobs at 10000 uM GlcN6P (glucosamine-6-phosphate [6]): 5.57e-05 ± 8.2e-06 s⁻¹

Variant: AUAAAAGCGCCAGAACUACAGAAAUGUAAUUGACGAGGAGGAGGUUUAUCGAAUUUUCGGCGGAUGCCUCAAAA
- kcat (glucosamine-6-phosphate [1]): 0.000446 ± 4.4e-05 s⁻¹
- KM (glucosamine-6-phosphate [2]): 592 ± 140 µM
- self-cleavage kobs at 640 uM GlcN6P (glucosamine-6-phosphate [4]): 0.000233 ± 4e-05 s⁻¹
- self-cleavage kobs at 2500 uM GlcN6P (glucosamine-6-phosphate [5]): 0.000344 ± 0.0001 s⁻¹
- self-cleavage kobs at 10000 uM GlcN6P (glucosamine-6-phosphate [6]): 0.000437 ± 0.00014 s⁻¹

Variant: AUAAAAGCGCCAGAACUACAGAAAUGUAGGCGACGAGGAGGAGGUUUAUCGAAUUUUCGGCGGAUGCCUCCAAA
- kcat (glucosamine-6-phosphate [1]): 0.00345 ± 0.00042 s⁻¹
- KM (glucosamine-6-phosphate [2]): 2530 ± 520 µM
- self-cleavage kobs at 40 uM GlcN6P (glucosamine-6-phosphate [7]): 4.81e-05 ± 8.9e-06 s⁻¹
- self-cleavage kobs at 160 uM GlcN6P (glucosamine-6-phosphate [3]): 0.000238 ± 3.9e-05 s⁻¹
- self-cleavage kobs at 640 uM GlcN6P (glucosamine-6-phosphate [4]): 0.000578 ± 0.00015 s⁻¹
- self-cleavage kobs at 2500 uM GlcN6P (glucosamine-6-phosphate [5]): 0.00207 ± 0.0003 s⁻¹
- self-cleavage kobs at 10000 uM GlcN6P (glucosamine-6-phosphate [6]): 0.00267 ± 0.00025 s⁻¹
